# B1: Lipopolysaccharide export system protein LptC (Escherichia coli (strain K12)), P0ADV9 (parent)
# chain: MSKARRWVIIVLSLAVLVMIGINMAEKDDTAQVVVNNNDPTYKSEHTDTLVYNPEGALSYRLIAQHVEYYSDQAVSWFTQPVLTTFDKDKIPTWSVKADKAKLTNDRMLYLYGHVEVNALVPDSQLRRITTDNAQINLVTQDVTSEDLVTLYGTTFNSSGLKMRGNLRSKNAELIEKVRTSYEIQNKQTQP
# partner: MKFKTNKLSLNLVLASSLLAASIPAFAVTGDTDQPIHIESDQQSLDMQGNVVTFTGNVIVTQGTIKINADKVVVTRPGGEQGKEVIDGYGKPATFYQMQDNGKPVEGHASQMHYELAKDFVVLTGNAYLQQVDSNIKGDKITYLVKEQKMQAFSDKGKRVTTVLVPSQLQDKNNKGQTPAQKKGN
# Variants of: B1
# Settings: with lpta_ecoli lptA
row,Variant,effect of a mutation on the interaction
1,MSKARRWVIIVLSLAVLVMIGINMAEKDDTAQVVVNNNDPTYKSEHTDTLVYNPEGALSYRLIAQHVEYYSDQAVSWFTQPVLTTFDKDKIPTWSVKADKAKLTNDRMLYLYGHVEVNALVPDSQLRRITTDNAQINLVTQDVTSEDLVTLYRTTFNSSGLKMRGNLRSKNAELIEKVRTSYEIQNKQTQP [G153R],disrupting interaction
